# Measured values published in patent US9958461B2, “Detection of protein to protein interactions” (THE GOVERNING COUNCIL OF THE UNIVERSITY OF TORONTO, priority 2013, dated 2018).
# B1: SH3GL2 (protein, UniProt Q99962 1-352, looked up)
# Endophilin-A1: MSVAGLKKQFHKATQKVSEKVGGAEGTKLDDDFKEMERKVDVTSRAVMEIMTKTIEYLQPNPASRAKLSMINTMSKIRGQEKGPGYPQAEALLAEAMLKFGRELGDDCNFGPALGEVGEAMRELSEVKDSLDIEVKQNFIDPLQNLHDKDLREIQHHLKKLEGRRLDFDYKKKRQGKIPDEELRQALEKFDESKEIAESSMFNLLEMDIEQVSQLSALVQAQLEYHKQAVQILQQVTVRLEERIRQASSQPRREYQPKPRMSLEFPTGDSTQPNGGLSHTGTPKPSGVQMDQPCCRALYDFEPENEGELGFKEGDIITLTNQIDENWYEGMLHGHSGFFPINYVEILVALPH
# B2: Pdgfra (protein, UniProt P26618 25-1089, looked up)
# Platelet-derived growth …: LLLPSILPNENEKIVQLNSSFSLRCVGESEVSWQHPMSEEDDPNVEIRSEENNSGLFVTVLEVVNASAAHTGWYTCYYNHTQTDESEIEGRHIYIYVPDPDMAFVPLGMTDSLVIVEEDDSAIIPCRTTDPETQVTLHNNGRLVPASYDSRQGFNGTFSVGPYICEATVKGRTFKTSEFNVYALKATSELNLEMDARQTVYKAGETIVVTCAVFNNEVVDLQWTYPGEVRNKGITMLEEIKLPSIKLVYTLTVPKATVKDSGEYECAARQATKEVKEMKRVTISVHEKGFVEIEPTFGQLEAVNLHEVREFVVEVQAYPTPRISWLKDNLTLIENLTEITTDVQKSQETRYQSKLKLIRAKEEDSGHYTIIVQNEDDVKSYTFELSTLVPASILDLVDDHHGSGGGQTVRCTAEGTPLPEIDWMICKHIKKCNNDTSWTVLASNVSNIITELPRRGRSTVEGRVSFAKVEETIAVRCLAKNNLSVVARELKLVAPTLRSELTVAAAVLVLLVIVIVSLIVLVVIWKQKPRYEIRWRVIESISPDGHEYIYVDPMQLPYDSRWEFPRDGLVLGRILGSGAFGKVVEGTAYGLSRSQPVMKVAVKMLKPTARSSEKQALMSELKIMTHLGPHLNIVNLLGACTKSGPIYIITEYCFYGDLVNYLHKNRDSFMSQHPEKPKKDLDIFGLNPADESTRSYVILSFENNGDYMDMKQADTTQYVPMLERKEVSKYSDIQRSLYDRPASYKKKSMLDSEVKNLLSDDDSEGLTLLDLLSFTYQVARGMEFLASKNCVHRDLAARNVLLAQGKIVKICDFGLARDIMHDSNYVSKGSTFLPVKWMAPESIFDNLYTTLSDVWSYGILLWEIFSLGGTPYPGMMVDSTFYNKIKSGYRMAKPDHATSEVYEIMVQCWNSEPEKRPSFYHLSEIVENLLPGQYKKSYEKIHLDFLKSDHPAVARMRVDSDNAYIGVTYKNEEDKLKDWEGGLDEQRLSADSGYIIPLPDIDPVPEEEDLGKRNRHSSQTSEESAIETGSSSSTFIKREDETIEDIDMMDDIGIDSSDLVEDSFL
# B3: MAPK8 (protein, UniProt P45983 1-427, looked up)
# Mitogen-activated protein …: MSRSKRDNNFYSVEIGDSTFTVLKRYQNLKPIGSGAQGIVCAAYDAILERNVAIKKLSRPFQNQTHAKRAYRELVLMKCVNHKNIIGLLNVFTPQKSLEEFQDVYIVMELMDANLCQVIQMELDHERMSYLLYQMLCGIKHLHSAGIIHRDLKPSNIVVKSDCTLKILDFGLARTAGTSFMMTPYVVTRYYRAPEVILGMGYKENVDLWSVGCIMGEMVCHKILFPGRDYIDQWNKVIEQLGTPCPEFMKKLQPTVRTYVENRPKYAGYSFEKLFPDVLFPADSEHNKLKASQARDLLSKMLVIDASKRISVDEALQHPYINVWYDPSEAEAPPPKIPDKQLDEREHTIEEWKELIYKEVMDLEERTKNGVIRGQPSPLGAAVINGSQHPSSSSSVNDVSSMSTDPTLASDTDSSLEAAAGPLGCCR
# B4: MAP3K3 (protein, UniProt Q99759 1-626, looked up)
# Mitogen-activated protein …: MDEQEALNSIMNDLVALQMNRRHRMPGYETMKNKDTGHSNRQSDVRIKFEHNGERRIIAFSRPVKYEDVEHKVTTVFGQPLDLHYMNNELSILLKNQDDLDKAIDILDRSSSMKSLRILLLSQDRNHNSSSPHSGVSRQVRIKASQSAGDINTIYQPPEPRSRHLSVSSQNPGRSSPPPGYVPERQQHIARQGSYTSINSEGEFIPETSEQCMLDPLSSAENSLSGSCQSLDRSADSPSFRKSRMSRAQSFPDNRQEYSDRETQLYDKGVKGGTYPRRYHVSVHHKDYSDGRRTFPRIRRHQGNLFTLVPSSRSLSTNGENMGLAVQYLDPRGRLRSADSENALSVQERNVPTKSPSAPINWRRGKLLGQGAFGRVYLCYDVDTGRELASKQVQFDPDSPETSKEVSALECEIQLLKNLQHERIVQYYGCLRDRAEKTLTIFMEYMPGGSVKDQLKAYGALTESVTRKYTRQILEGMSYLHSNMIVHRDIKGANILRDSAGNVKLGDFGASKRLQTICMSGTGMRSVTGTPYWMSPEVISGEGYGRKADVWSLGCTVVEMLTEKPPWAEYEAMAAIFKIATQPTNPQLPSHISEHGRDFLRRIFVEARQRPSAEELLTHHFAQLMY
# B5: WASF3 (protein, UniProt Q9UPY6 1-502, looked up)
# Actin-binding protein WASF3: MPLVKRNIEPRHLCRGALPEGITSELECVTNSTLAAIIRQLSSLSKHAEDIFGELFNEANNFYIRANSLQDRIDRLAVKVTQLDSTVEEVSLQDINMKKAFKSSTVQDQQVVSKNSIPNPVADIYNQSDKPPPLNILTPYRDDKKDGLKFYTDPSYFFDLWKEKMLQDTEDKRKEKRRQKEQKRIDGTTREVKKVRKARNRRQEWNMMAYDKELRPDNRLSQSVYHGASSEGSLSPDTRSHASDVTDYSYPATPNHSLHPQPVTPSYAAGDVPPHGPASQAAEHEYRPPSASARHMALNRPQQPPPPPPPQAPEGSQASAPMAPADYGMLPAQIIEYYNPSGPPPPPPPPVIPSAQTAFVSPLQMPMQPPFPASASSTHAAPPHPPSTGLLVTAPPPPGPPPPPPGPPGPGSSLSSSPMHGPPVAEAKRQEPAQPPISDARSDLLAAIRMGIQLKKVQEQREQEAKREPVGNDVATILSRRIAVEYSDSDDDSEFDENDWSD
# B6: SH2D3A (protein, UniProt Q9BRG2 1-576, looked up)
# SH2 domain-containing protein …: MQVPQDGEDLAGQPWYHGLLSRQKAEALLQQNGDFLVRASGSRGGNPVISCRWRGSALHFEVFRVALRPRPGRPTALFQLEDEQFPSIPALVHSYMTGRRPLSQATGAVVSRPVTWQGPLRRSFSEDTLMDGPARIEPLRARKWSNSQPADLAHMGRSREDPAGMEASTMPISALPRTSSDPVLLKAPAPLGTVADSLRASDGQLQAKAPTKPPRTPSFELPDASERPPTYCELVPRVPSVQGTSPSQSCPEPEAPWWEAEEDEEEENRCFTRPQAEISFCPHDAPSCLLGPQNRPLEPQVLHTLRGLFLEHHPGSTALHLLLVDCQATGLLGVTRDQRGNMGVSSGLELLTLPHGHHLRLELLERHQTLALAGALAVLGCSGPLEERAAALRGLVELALALRPGAAGDLPGLAAVMGALLMPQVSRLEHTWRQLRRSHTEAALAFEQELKPLMRALDEGAGPCDPGEVALPHVAPMVRLLEGEEVAGPLDESCERLLRTLHGARHMVRDAPKFRKVAAQRLRGFRPNPELREALTTGFVRRLLWGSRGAGAPRAERFEKFQRVLGVLSQRLEPDR
# B7: BAIAP2 (protein, UniProt Q9UQB8 1-552, looked up)
# BAR/IMD domain-containing …: MSLSRSEEMHRLTENVYKTIMEQFNPSLRNFIAMGKNYEKALAGVTYAAKGYFDALVKMGELASESQGSKELGDVLFQMAEVHRQIQNQLEEMLKSFHNELLTQLEQKVELDSRYLSAALKKYQTEQRSKGDALDKCQAELKKLRKKSQGSKNPQKYSDKELQYIDAISNKQGELENYVSDGYKTALTEERRRFCFLVEKQCAVAKNSAAYHSKGKELLAQKLPLWQQACADPSKIPERAVQLMQQVASNGATLPSALSASKSNLVISDPIPGAKPLPVPPELAPFVGRMSAQESTPIMNGVTGPDGEDYSPWADRKAAQPKSLSPPQSQSKLSDSYSNTLPVRKSVTPKNSYATTENKTLPRSSSMAAGLERNGRMRVKAIFSHAAGDNSTLLSFKEGDLITLLVPEARDGWHYGESEKTKMRGWFPFSYTRVLDSDGSDRLHMSLQQGKSSSTGNLLDKDDLAIPPPDYGAASRAFPAQTASGFKQRPYSVAVPAFSQGLDDYGARSMSRNPFAHVQLKPTVTNDRCDLSAQGPEGREHGDGSARTLAGR
# B8: Shc1 (protein, UniProt P98083 1-579, looked up)
# SHC-transforming protein 1: MDLLPPKPKYNPLRNESLSSLEEGASGSTPPEELPSPSASSLGPILPPLPGDDSPTTLCSFFPRMSNLKLANPAGGRLGPKGEPGKAAEDGEGSAGAALRDSGLLPLLQDMNKLSGGGGRRTRVEGGQLGGEEWTRHGSFVNKPTRGWLHPNDKVMGPGVSYLVRYMGCVEVLQSMRALDFNTRTQVTREAISLVCEAVPGAKGATRRRKPCSRPLSSILGRSNLKFAGMPITLTVSTSSLNLMAADCKQIIANHHMQSISFASGGDPDTAEYVAYVAKDPVNQRACHILECPEGLAQDVISTIGQAFELRFKQYLRNPPKLVTPHDRMAGFDGSAWDEEEEEPPDHQYYNDFPGKEPPLGGVVDMRLREGAARPTLPSAQMSSHLGATLPIGQHAAGDHEVRKQMLPPPPCPGRELFDDPSYVNIQNLDKARQAGGGAGPPNPSLNGSAPRDLFDMKPFEDALRVPPPPQSMSMAEQLQGEPWFHGKLSRREAEALLQLNGDFLVRESTTTPGQYVLTGLQSGQPKHLLLVDPEGVVRTKDHRFESVSHLISYHMDNHLPIISAGSELCLQQPVDRKV
# Columns and labels:
# EGFR-L858R = molecular target: T1, EGFR-L858R (Homo sapiens, UniProt P00533, L858R); experiment: MaMTH EGFR-interactor screen, lentiviral preys against EGFR-L858R bait (interaction score); type: cell-based; settings: MaMTH interaction score of prey with EGFR-L858R bait
# T1 construct: with the advantage of testing full-length integral membrane proteins; (GGGGS)2 linker-Cub (human ubiquitin aa 35-76)-GAL4(1-147)-mNFkB(364-550) (C); expressed in transfected cells
# In short: (§1)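 Interaction score is the luciferase fold-change versus averaged negative controls (Fabp5, Pex19, Pex7, GABBR2), with >1 called interacting. Luciferase was measured 24 h after triplicate bait transfection. This followed single-copy prey transduction (MOI ~0.3-0.4) of GAL4UAS-luciferase HEK293T cells and ≥48 h puromycin selection.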
# EGFR-Wt [1] = experiment: MaMTH EGFR-interactor screen, lentiviral preys against EGFR-wildtype bait (interaction score); type: cell-based, human; settings: ratio of EGFR-Wt mean to EGFR-L858R mean interaction score
# In short: as §1
# EGFR-Wt [2] = molecular target: T2, EGFR-Wt (Homo sapiens, UniProt P00533); experiment: as above; type: cell-based; settings: MaMTH interaction score of prey with EGFR-Wt bait, mean
# T2 construct: with the advantage of testing full-length integral membrane proteins; (GGGGS)2 linker-Cub (human ubiquitin aa 35-76)-GAL4(1-147)-mNFkB(364-550) (C); expressed in transfected cells
# In short: as §1
Molecule,EGFR-L858R mean (EGFR-L858R),Wt/L858R (EGFR-Wt [1]),EGFR-Wt mean (EGFR-Wt [2])
B1,7.85,0.58,4.58
B2,13.73,0.67,9.18
B3,5.13,0.64,3.30
B4,3.46,0.58,2.01
B5,2.15,0.61,1.30
B6,7.23,0.66,4.75
B7,7.37,0.66,4.83
B8,21.65,0.64,13.89
